Reference: paper PMC12102759 (2025)

B1: SARS‐CoV‐2 NSP3 UBl1 domain (819–925), tag cleaved, for FP (domain or fragment)
chain: APTKVTFGDDTVIEVQGYKSVNITFELDERIDKVLNEKCSAYTVELGTEVNEFACVVADAVIKTLQPVSELLTPLGIDLDEWSMATYYLFDESGEFKLASHMYCSFY
B2: SARS‐CoV‐2 NSP3 SUD‐M domain (1356–1493), tag cleaved, for FP (domain or fragment)
chain: LPSIISNEKQEILGTVSWNLREMLAHAEETRKLMPVCVETKAIVSTIQRKYKGIKIQEGVVDYGARFYFYTSKTTVASLINTLNDLNETLVTMPLGYVTHGLNLEEAARYMRSLKVPATVSVSSPDAVTAYNGYLTSS

What was measured:
NCOA2 wild-type peptide = assay: FP
PRDM14 wild-type peptide = assay: FP

Binder | Kd (NCOA2 wild-type peptide) [µM] | Kd (PRDM14 wild-type peptide) [µM]
B1 | 39 | 
B2 |  | 74
